Patent US20130195901A1

Target: HLA-A*0201 class I monomer of the iTopia Epitope Discovery System
Test: iTopia binding ED50
Details: modification not given

- EC50: 524 nM
Binder: YLSEKIFYV [PSMA 288-297 (L289(Nle), I297(Nle))]
